Square brackets hold non-standard residues; d marks the D form. Ends that are not written are not given here.
B1: peptide 5 (SFLLR-CONH2) (peptide)
peptide: SFLLR-NH2
notes: printed as SFLLR-CONH2; picked by virtual screening of ZINC libraries; also called compound 5; source: synthetic peptide
B2: peptide 4 (YSGFLT) (peptide)
peptide: YSGFLT
notes: printed as YSGFLT; picked by virtual screening of ZINC libraries; also called compound 4; source: synthetic peptide

Key:
[1] = target: T1, human inducible phospho-fructokinase bisphosphatase isoform 3, PFKFB3 (human, UniProt Q16875 1-520, RED-NHS label); assay: MST; Nanotemper microscale thermophoresis; compound in MST buffer mixed 1:1 with 100 nM RED-NHS labeled recombinant PFKFB3, incubated 20 min at room temperature; settings: both partners purified
T1 construct: human PFKFB3 (inducible bifunctional enzyme), GenBank AF056320.1; Plasmid from Prof; Yong-Hwan Lee; also called 6-Phosphofructo-2-kinase/fructose-2,6-biphosphatase 3; human inducible bifunctional enzyme; not shown: His tag, N-terminal, cleaved

[2] = target: T1, human inducible phospho-fructokinase …; assay: as above; settings: both partners purified; remark: listed apart in the source

T1 sequence (Q16875 whole entry, canonical isoform): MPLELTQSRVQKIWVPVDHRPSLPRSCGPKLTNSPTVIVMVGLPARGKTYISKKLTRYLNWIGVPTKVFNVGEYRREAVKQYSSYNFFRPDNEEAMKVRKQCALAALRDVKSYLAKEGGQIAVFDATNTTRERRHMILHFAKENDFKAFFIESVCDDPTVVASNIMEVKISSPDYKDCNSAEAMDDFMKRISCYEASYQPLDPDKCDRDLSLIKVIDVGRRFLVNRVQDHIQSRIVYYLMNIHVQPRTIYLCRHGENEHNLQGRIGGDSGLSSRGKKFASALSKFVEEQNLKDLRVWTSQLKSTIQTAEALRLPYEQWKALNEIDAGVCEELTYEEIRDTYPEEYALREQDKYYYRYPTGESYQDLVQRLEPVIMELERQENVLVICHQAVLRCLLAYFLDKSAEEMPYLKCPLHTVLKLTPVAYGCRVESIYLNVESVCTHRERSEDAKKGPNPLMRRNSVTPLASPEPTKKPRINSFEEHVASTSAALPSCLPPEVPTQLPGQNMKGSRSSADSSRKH

Binder	Kd [1]	Kd [2]
B1	44.4 µM	
B2	18.3 µM	
[dW]-Gly-[dY] [peptide 6 (wGy)]		2.79 µM
